Measurements reported in patent publication US20250186597A1, “TARGETED IMMUNE ACTIVATION WITH IL-18 IMMUNOCYTOKINES” (BRIGHT PEAK THERAPEUTICS AG, priority 2023, published 2025).

Legend:
Assay in all cases: cell-based or functional assay
[1] = target: IL-18 polypeptide C162 (K8E, V11I, C38A, C76A, Q103R, C127A) (human) (UniProt Q14116)
[2] = target: IL-18 polypeptide C156 (V11I, C38A, N41A, K53A, C76A, C127A) (human) (UniProt Q14116)
[3] = target: IL-18 polypeptide C159 (V11I, C38A, K53A, C76A, H109A, C127A) (human) (UniProt Q14116)
[4] = target: IL-18 polypeptide of SEQ ID NO: 54 (E06K, K53A, C38S, C68S, C76S, C127S, K70C) (human) (UniProt Q14116)
[5] = target: IL-18 polypeptide C151 (V11I, D35A, C38A, K53A, C76A, C127A) (human) (UniProt Q14116)
[6] = target: IL-18 polypeptide C168 (V11I, C38A, C76A, S105K, C127A) (human) (UniProt Q14116)
[7] = target: IL-18 polypeptide of SEQ ID NO: 9 (E6K, C38A, K53A, C68A, D98C) (human) (UniProt Q14116)
[8] = target: native IL-18 wild-type (SEQ ID NO: 1) (human) (UniProt Q14116)
[9] = target: IL-18 polypeptide C149 (V11I, E31A, C38A, K53A, C76A, C127A) (human) (UniProt Q14116)
[10] = target: IL-18 polypeptide C143 (V11I, C38A, K53A, C76A, C127A) (human) (UniProt Q14116)
[11] = target: IL-18 polypeptide of SEQ ID NO: 42 (E06K, K53A, S55A, T63A) (human) (UniProt Q14116)
[12] = target: IL-18 polypeptide of SEQ ID NO: 40 (E06K, S55A) (human) (UniProt Q14116)
[13] = target: IL-18 polypeptide of SEQ ID NO: 43 (E06K, K53A, S55A, Y01G) (human) (UniProt Q14116)
[14] = target: IL-18 polypeptide C154 (V11I, E31A, D37A, C38A, K53A, C76A, C127A) (human) (UniProt Q14116)
[15] = target: IL-18 polypeptide of SEQ ID NO: 6 (E6K, V11I, C38A, K53A, T63A, C68A, C76A, D98C, C127A) (human) (UniProt Q14116)
[16] = target: IL-18 polypeptide C164 (V11I, C38A, S55H, C76A, C127A) (human) (UniProt Q14116)
[17] = target: IL-18 polypeptide of SEQ ID NO: 60 (E6K, C38Q, K53A) (human) (UniProt Q14116)
[18] = target: IL-18 polypeptide C158 (V11I, C38A, K53A, C76A, G108A, C127A) (human) (UniProt Q14116)
[19] = target: IL-18 polypeptide C150 (V11I, T34A, C38A, K53A, C76A, C127A) (human) (UniProt Q14116)
[20] = target: IL-18 polypeptide of SEQ ID NO: 37 (S55A) (human) (UniProt Q14116)
[21] = target: IL-18 polypeptide of SEQ ID NO: 59 (E6K, C38A, K53A) (human) (UniProt Q14116)
[22] = target: IL-18 polypeptide of SEQ ID NO: 35 (Y01G, F02A, E06K, M51G, K53A, D54A, S55A, T63A) (human) (UniProt Q14116)
[23] = target: IL-18 polypeptide of SEQ ID NO: 38 (E06K) (human) (UniProt Q14116)
[24] = target: IL-18 polypeptide of SEQ ID NO: 53 (K53A, T63A) (human) (UniProt Q14116)
[25] = target: IL-18 polypeptide of SEQ ID NO: 57 (E6K, C38S, K53A) (human) (UniProt Q14116)
[26] = target: IL-18 polypeptide C148 (F2A, V11I, C38A, K53A, C76A, C127A) (human) (UniProt Q14116)
[27] = target: IL-18 polypeptide C155 (V11I, C38A, D40A, K53A, C76A, C127A) (human) (UniProt Q14116)
[28] = target: IL-18 polypeptide C161 (K8R, V11I, C38A, C76A, Q103E, C127A) (human) (UniProt Q14116)
[29] = target: IL-18 polypeptide of SEQ ID NO: 52 (E06K, T63A) (human) (UniProt Q14116)
[30] = target: IL-18 polypeptide of SEQ ID NO: 41 (K53A, S55A) (human) (UniProt Q14116)
[31] = target: IL-18 polypeptide of SEQ ID NO: 31 (C38A, C76A, C127A) (human) (UniProt Q14116)
[32] = target: IL-18 polypeptide C152 (V11I, S36A, C38A, K53A, C76A, C127A) (human) (UniProt Q14116)
[33] = target: IL-18 polypeptide C167 (V11I, C38A, C76A, S105I, C127A) (human) (UniProt Q14116)

IC50 of inhibition by IL-18BP of IFNγ stimulation in NK92 cells [1]: 7.29 nM
IC50 of inhibition by IL-18BP of IFNγ stimulation in NK92 cells [2]: 0.681 nM
IC50 of inhibition by IL-18BP of IFNγ stimulation in NK92 cells [3]: 1.81 nM
IC50 of inhibition by IL-18BP of IFNγ stimulation in NK92 cells [4]: 23.5 nM
IC50 of inhibition by IL-18BP of IFNγ stimulation in NK92 cells [5]: 3.62 nM
IC50 of inhibition by IL-18BP of IFNγ stimulation in NK92 cells [6]: 0.176 nM
IC50 of inhibition by IL-18BP of IFNγ stimulation in NK92 cells [7]: 961 nM
IC50 of IL-18BP-mediated inhibition of IFNγ secretion by NK92 cells [8]: 0.781 nM
IC50 of inhibition by IL-18BP of IFNγ stimulation in NK92 cells [8]: 1.47 nM
IC50 of inhibition by IL-18BP of IFNγ stimulation in NK92 cells [9]: 1.17 nM
IC50 of inhibition by IL-18BP of IFNγ stimulation in NK92 cells [10]: 1.62 nM
IC50 of inhibition by IL-18BP of IFNγ stimulation in NK92 cells [11]: 1060 nM
IC50 of inhibition by IL-18BP of IFNγ stimulation in NK92 cells [12]: 15 nM
IC50 of inhibition by IL-18BP of IFNγ stimulation in NK92 cells [13]: 27.8 nM
IC50 of inhibition by IL-18BP of IFNγ stimulation in NK92 cells [14]: 3.71 nM
IC50 of inhibition by IL-18BP of IFNγ stimulation in NK92 cells [15]: 5.85 nM
IC50 of inhibition by IL-18BP of IFNγ stimulation in NK92 cells [16]: 0.456 nM
IC50 of inhibition by IL-18BP of IFNγ stimulation in NK92 cells [17]: 780 nM
IC50 of inhibition by IL-18BP of IFNγ stimulation in NK92 cells [18]: 3.98 nM
IC50 of inhibition by IL-18BP of IFNγ stimulation in NK92 cells [19]: 21.3 nM
IC50 of inhibition by IL-18BP of IFNγ stimulation in NK92 cells [20]: 4.46 nM
IC50 of inhibition by IL-18BP of IFNγ stimulation in NK92 cells [21]: 654 nM
IC50 of inhibition by IL-18BP of IFNγ stimulation in NK92 cells [22]: > 55 nM
IC50 of inhibition by IL-18BP of IFNγ stimulation in NK92 cells [23]: 7.79 nM
IC50 of inhibition by IL-18BP of IFNγ stimulation in NK92 cells [24]: 18.2 nM
IC50 of inhibition by IL-18BP of IFNγ stimulation in NK92 cells [25]: 146 nM
IC50 of inhibition by IL-18BP of IFNγ stimulation in NK92 cells [26]: 5.05 nM
IC50 of inhibition by IL-18BP of IFNγ stimulation in NK92 cells [27]: 3.23 nM
IC50 of inhibition by IL-18BP of IFNγ stimulation in NK92 cells [28]: 1.07 nM
IC50 of inhibition by IL-18BP of IFNγ stimulation in NK92 cells [29]: 47.1 nM
IC50 of inhibition by IL-18BP of IFNγ stimulation in NK92 cells [30]: 37.3 nM
IC50 of IL-18BP-mediated inhibition of IFNγ secretion by NK92 cells [31]: 0.282 nM
IC50 of inhibition by IL-18BP of IFNγ stimulation in NK92 cells [32]: 7.85 nM
IC50 of inhibition by IL-18BP of IFNγ stimulation in NK92 cells [33]: 0.809 nM
Substance: Fc fused human IL-18 binding protein isoform a (IL-18BPa; R&D systems, Cat #119-BP) (from UniProt O95998 31-194) (Fc fusion)
